The text below walks through data of patent publication US20200255516A1 (JIANGSU HENGRUI MEDICINE, published 2020).

For assay [1], the target named is T1, human TIGIT (Sinobiological Co., Ltd., Cat. 10917-H08-H) (human, UniProt Q495A1 22-141).
T1 construct: also called huTIGIT; TIGIT-His
T1 sequence (looked up): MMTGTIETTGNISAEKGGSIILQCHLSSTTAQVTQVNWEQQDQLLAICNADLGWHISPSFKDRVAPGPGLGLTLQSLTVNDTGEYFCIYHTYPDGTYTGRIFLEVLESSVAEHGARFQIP
The assay can be described thus: SPR (Biacore), captured antibody, TIGIT-His as analyte.

The target of assay [2] is T2, Full-length human TIGIT on CHO cells overexpressing TIGIT (human, UniProt Q495A1 22-244).
T2 construct: also called TIGIT-CHO cells; CHO cells overexpressing human TIGIT
T2 sequence: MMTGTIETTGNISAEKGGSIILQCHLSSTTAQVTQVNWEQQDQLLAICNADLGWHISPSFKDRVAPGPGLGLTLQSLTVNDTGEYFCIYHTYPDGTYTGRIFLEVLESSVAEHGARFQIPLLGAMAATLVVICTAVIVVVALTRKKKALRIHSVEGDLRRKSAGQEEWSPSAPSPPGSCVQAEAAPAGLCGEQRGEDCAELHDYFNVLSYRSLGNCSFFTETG
Kind of assay: cell ELISA on fixed CHO cells overexpressing human TIGIT.

For assay [3], the target named is T2, Full-length human TIGIT on CHO cells …. Kind of assay: FACS blocking assay on TIGIT-CHO cells; competitor CF633-labeled CD155-Fc at 2 ug/ml.
The target in assay [4] is T3, TIGIT fusion protein with Fc or mFc tag (human, UniProt Q495A1 22-141).
T3 construct: extracellular domain; also called TIGIT-Fc; TIGIT-mFc
T3 sequence (looked up): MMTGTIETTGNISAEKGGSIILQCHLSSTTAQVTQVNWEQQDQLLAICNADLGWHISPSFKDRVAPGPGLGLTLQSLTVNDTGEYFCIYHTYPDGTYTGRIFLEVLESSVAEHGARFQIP
The assay can be described thus: ELISA: human TIGIT-Fc or TIGIT-mFc captured by coated anti-Fc antibody, HRP secondary antibody, OD450.

In assay [5] the target is T3, TIGIT fusion protein with Fc or mFc tag. The assay can be described thus: HTRF blocking assay: TIGIT-Fc or TIGIT-mFc with biotinylated CD155 as the blocked ligand, ratio 665/620.
Assay [6] has as its target T4, human TIGIT on SEB-activated human PBMC (human, UniProt Q495A1).
T4 construct: native, on the cell surface
T4 sequence (receptor chain, looked up): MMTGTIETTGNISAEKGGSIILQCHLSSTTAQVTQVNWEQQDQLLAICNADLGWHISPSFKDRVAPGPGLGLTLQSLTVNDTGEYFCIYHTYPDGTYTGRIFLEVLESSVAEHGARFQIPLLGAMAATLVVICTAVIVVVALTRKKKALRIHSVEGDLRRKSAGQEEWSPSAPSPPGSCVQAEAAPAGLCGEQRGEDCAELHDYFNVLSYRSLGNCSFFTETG
Kind of assay: flow cytometry on SEB-activated human PBMC, PE anti-human IgG, MFI.

Assay [7] concerns the target T1, human TIGIT (Sinobiological Co., Ltd., …). The assay can be described thus: SPR (Biacore T200), antibody captured via Protein A, huTIGIT in mobile phase, 1:1 Langmuir fit.
The target of assay [8] is T5, cynoTIGIT-mFc (fusion protein of cynoTIGIT extracellular domain and mouse IgG2a Fc fragment) (cynomolgus).
T5 construct: also called monkey TIGIT; cynomolgus TIGIT-mFc fusion protein
The assay can be described thus: SPR (Biacore T200), antibody held by Fc affinity capture, cynoTIGIT-mFc in mobile phase, 1:1 Langmuir fit.

Assay [9] concerns the target T3, TIGIT fusion protein with Fc or mFc tag. Kind of assay: HTRF blocking assay: TIGIT-Fc or TIGIT-mFc with biotinylated CD155 as the blocked ligand, ratio 665/620. This is another data set of the same source.
Assay [10] has the same target. The assay can be described thus: FACS blocking assay: TIGIT-mFc pre-incubated with the antibody, added to CHO cells overexpressing CD112 (blocked ligand), PE anti-mouse IgG, MFI.
Assay [11] has the same target. The assay can be described thus: blocking cell ELISA: TIGIT-hFc or TIGIT-mFc (0.2 ug/ml) pre-mixed with the antibody, added to fixed CHO cells overexpressing CD155 (blocked ligand), OD450.

T5 sequence (chain, as listed by the source limits assumed): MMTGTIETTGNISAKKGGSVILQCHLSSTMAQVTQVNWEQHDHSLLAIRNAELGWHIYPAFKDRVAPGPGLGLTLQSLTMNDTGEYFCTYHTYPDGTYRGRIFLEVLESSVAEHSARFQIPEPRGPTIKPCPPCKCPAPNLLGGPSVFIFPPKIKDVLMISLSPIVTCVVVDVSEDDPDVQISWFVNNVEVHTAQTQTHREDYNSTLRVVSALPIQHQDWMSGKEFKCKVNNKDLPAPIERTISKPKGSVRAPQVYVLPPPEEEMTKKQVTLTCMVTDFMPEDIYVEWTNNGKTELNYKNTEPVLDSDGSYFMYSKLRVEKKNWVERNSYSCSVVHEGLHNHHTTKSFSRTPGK

B1: h1711-01 (antibody, V domains shown)
VH: EVQLVQSGAEVKKPGSSVKVSCKASGGTFSNYWIGWVRQAPGQGLEWMGDIYPGGAYTNYNEKFKDRVTITADKSTSTAYMELSSLRSEDTAVYYCARGDYYDSSGRAMDYWGQGTLVTVSS
VL: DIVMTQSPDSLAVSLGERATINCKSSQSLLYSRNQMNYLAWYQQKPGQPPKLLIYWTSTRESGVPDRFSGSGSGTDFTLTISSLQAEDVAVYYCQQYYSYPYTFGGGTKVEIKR
In the case of B1, in [1], the Kd was 1.49 nM, the koff worked out at 0.00209 s⁻¹ and the kon was found to be 1.4e+06 M⁻¹ s⁻¹.

B2: h1711-03 (antibody, human IgG4 S228P, kappa, V domains shown)
VH: EVQLVQSGAEVKKPGSSVKVSCKASGYTFSNYWIGWVRQAPGQGLEWIGDIYPGGAYTNYNEKFKDRVTITADKSTSTAYMELSSLRSEDTAVYYCARGDYYDSSGRAMDYWGQGTLVTVSS
VL: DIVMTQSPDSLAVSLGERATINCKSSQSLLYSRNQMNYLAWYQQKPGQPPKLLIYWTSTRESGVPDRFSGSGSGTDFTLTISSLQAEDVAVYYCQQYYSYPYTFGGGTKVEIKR
As for B2, in assay [1], the Kd was 0.556 nM, the koff was found to be 0.000723 s⁻¹ and the kon is 1.3e+06 M⁻¹ s⁻¹.

B3: h1711-02 (antibody, human IgG4 S228P, kappa, V domains shown)
VH: EVQLVQSGAEVKKPGSSVKVSCKASGGTFSNYWIGWVRQAPGQGLEWIGDIYPGGAYTNYNEKFKDRVTITADKSTSTAYMELSSLRSEDTAVYYCARGDYYDSSGRAMDYWGQGTLVTVSS
VL: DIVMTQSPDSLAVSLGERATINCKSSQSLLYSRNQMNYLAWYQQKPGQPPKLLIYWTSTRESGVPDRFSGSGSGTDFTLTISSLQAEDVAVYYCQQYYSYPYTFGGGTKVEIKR
In [1], B3 came in with a Kd of 1.24 nM, a koff of 0.00171 s⁻¹ and a kon of 1.38e+06 M⁻¹ s⁻¹.

B4: ch1711 (antibody, V domains shown)
VH: QVQLQQSGTELVRPGTSVKMSCKASGYTFTNYWIGWAKQRPGHGLEWIGDIYPGGAYTNYNEKFKDKATLTADKSSSTAYMQFSSLTSEDSAIYYCTRGDYYDSSGRAMDYWGQGTSVTVSS
VL: DIVMSQSPSSLAVSVGEKVSMSCKSSQSLLYSRNQMNYLAWYQQKPGQSPKLLIYWTSTRESGVPDRFTGSGSGTDFTLTISSVKAEDLAVYYCQQYYSYPYTFGGGTKLEIK
notes: also called chimeric antibody corresponding to m1711
In assay [1], B4 registered a Kd of 0.249 nM, a koff of 0.000455 s⁻¹ and a kon of 1.83e+06 M⁻¹ s⁻¹.

B5: 10A7 hIgG4 (antibody, V domains shown)
VH: EVQLVESGGGLTQPGKSLKLSCEASGFTFSSFTMHWVRQSPGKGLEWVAFIRSGSGIVFYADAVRGRFTISRDNAKNLLFLQMNDLKSEDTAMYYCARRPLGHNTFDSWGQGTLVTVSS
VL: DIVMTQSPSSLAVSPGEKVTMTCKSSQSLYYSGVKENLLAWYQQKPGQSPKLLIYYASIRFTGVPDRFTGSGSGTDYTLTITSVQAEDMGQYFCQQGINNPLTFGDGTKLEIKR
In turn, B5 showed an EC50 in assay [2] of 0.109 nM. This molecule came in with an IC50 in assay [3] of 0.678 nM. Besides, the “EC50 (read off the curve)” value in assay [4] is roughly 0.2 nM.

B6: h1708-05 (antibody, human IgG4 S228P, kappa, V domains shown)
VH: EVQLVQSGAEVKKPGASVKVSCKASGYTFTNYWMHWVRQAPGQGLEWMGRIDPDSTGSKYNEKFKTRVTMTVDTSTSTVYMELSSLRSEDTAVYYCAREGAYGYYFDYWGQGTLVTVSS
VL: DIQMTQSPSSLSASVGDRVTITCRASENIYSYLAWYQQKPGKSPKLLIYNARTLAEGVPSRFSGSGSGTDFTLTISSLQPEDFATYYCQYHSGSPLPFGGGTKVEIKR
notes: also called humanized TIGIT antibody h1708-05
Turning to B6, the “IC50 (read off the curve)” value in [5] is roughly 1 nM.

B7: h1708-06 (antibody, human IgG4 S228P, kappa, V domains shown)
VH: EVQLVQSGAEVKKPGASVKVSCKASGYTFTNYWMHWVRQAPGQGLEWIGRIDPDSTGSKYNEKFKTRVTMTVDTSTSTAYMELSSLRSEDTAVYYCAREGAYGYYFDYWGQGTLVTVSS
VL: DIQMTQSPSSLSASVGDRVTITCRASENIYSYLAWYQQKPGKSPKLLIYNARTLAEGVPSRFSGSGSGTDFTLTISSLQPEDFATYYCQYHSGSPLPFGGGTKVEIKR
notes: also called humanized TIGIT antibody h1708-06
In the case of B7, the “IC50 (read off the curve)” value in assay [5] was roughly 1 nM.

B8: h1708-03 (antibody, human IgG4 S228P, kappa, V domains shown)
VH: EVQLVQSGAEVKKPGASVKVSCKASGYTFTNYWMHWVRQAPGQGLEWIGRIDPDSTGSKYNEKFKTRVTMTVDTSTSTAYMELSSLRSEDTAVYYCAREGAYGYYFDYWGQGTLVTVSS
VL: DIQMTQSPSSLSASVGDRVTITCRASENIYSYLAWYQQKPGKAPKLLIYNARTLAEGVPSRFSGSGSGTDFTLTISSLQPEDFATYYCQYHSGSPLPFGGGTKVEIKR
notes: also called humanized TIGIT antibody h1708-03
In the case of B8, in assay [5], the “IC50 (read off the curve)” value was roughly 1 nM.

B9: h1708-01 (antibody, human IgG4 S228P, kappa, V domains shown)
VH: EVQLVQSGAEVKKPGASVKVSCKASGYTFTNYWMHWVRQAPGQGLEWMGRIDPDSTGSKYNEKFKTRVTMTRDTSTSTVYMELSSLRSEDTAVYYCAREGAYGYYFDYWGQGTLVTVSS
VL: DIQMTQSPSSLSASVGDRVTITCRASENIYSYLAWYQQKPGKAPKLLIYNARTLAEGVPSRFSGSGSGTDFTLTISSLQPEDFATYYCQYHSGSPLPFGGGTKVEIKR
notes: also called humanized TIGIT antibody h1708-01
For the molecule B9, in assay [5], the “IC50 (read off the curve)” value is roughly 1 nM.

B10: h1708-04 (antibody, human IgG4 S228P, kappa, V domains shown)
VH: EVQLVQSGAEVKKPGASVKVSCKASGYTFTNYWMHWVRQAPGQGLEWMGRIDPDSTGSKYNEKFKTRVTMTRDTSTSTVYMELSSLRSEDTAVYYCAREGAYGYYFDYWGQGTLVTVSS
VL: DIQMTQSPSSLSASVGDRVTITCRASENIYSYLAWYQQKPGKSPKLLIYNARTLAEGVPSRFSGSGSGTDFTLTISSLQPEDFATYYCQYHSGSPLPFGGGTKVEIKR
notes: also called humanized TIGIT antibody h1708-04
For the molecule B10, the EC50 in [2] turned out to be 0.0848 nM. Besides, the “EC50 (read off the curve)” value was roughly 0.3 nM in assay [6] and roughly 0.1 nM in assay [4]. Moreover, the IC50 in assay [3] amounted to 0.499 nM. Besides, the Kd is 0.104 nM in [7] and 0.285 nM in assay [8]. The koff in assay [7] amounted to 0.000183 s⁻¹; in assay [8] it was 0.000352 s⁻¹. In addition, the kon in assay [7] was determined as 1.75e+06 M⁻¹ s⁻¹; in assay [8] it was 1.24e+06 M⁻¹ s⁻¹. The “IC50 (read off the curve)” value in assay [5] was roughly 1 nM; in [9], roughly 2 nM; in assay [10], roughly 5 nM; in assay [11], roughly 1 nM.

B11: h1708-02 (antibody, human IgG4 S228P, kappa, V domains shown)
VH: EVQLVQSGAEVKKPGASVKVSCKASGYTFTNYWMHWVRQAPGQGLEWMGRIDPDSTGSKYNEKFKTRVTMTVDTSTSTVYMELSSLRSEDTAVYYCAREGAYGYYFDYWGQGTLVTVSS
VL: DIQMTQSPSSLSASVGDRVTITCRASENIYSYLAWYQQKPGKAPKLLIYNARTLAEGVPSRFSGSGSGTDFTLTISSLQPEDFATYYCQYHSGSPLPFGGGTKVEIKR
notes: also called humanized TIGIT antibody h1708-02
With B11, the “IC50 (read off the curve)” value in assay [5] is roughly 1 nM.

B12: 22G2-H3Q (antibody, human IgG4 S228P, kappa, V domains shown)
VH: QVQLQESGPGLVKPSETLSLTCTVSGGSVSSGIYYWSWIRQPPGKGLEWIGYIYYSGSTNYNPSLKSRVTISVDTSKNQFSLKLSSVTAADTAVYYCARDYYVSGNYYNVDYYFFGVDVWGQGTTVTVSS
VL: EIVLTQSPATLSLSPGERATLSCRASQSVSSYLAWYQQKPGQAPRLLIYDASNRATGIPARFSGSGSGTDFTLTISSLEPEDFAVYYCQQRSNWPPLFTFGPGTKVDIKR
Take B12: the values for the Kd in assay [7] and in assay [8] were 0.709 nM and 0.166 nM, respectively. The koff in [7] was 0.000379 s⁻¹; in assay [8] it was 0.000404 s⁻¹. Besides, the kon in assay [7] amounted to 535000 M⁻¹ s⁻¹; in assay [8] it was 2.44e+06 M⁻¹ s⁻¹. Also, the “IC50 (read off the curve)” value in [10] is roughly 5 nM; in [11], roughly 1 nM.
